Results taken from PMC7126280 (Structure (London, England : 1993), 2006).

Biological target: the molecule itself
Assay: AUC + other: dynamic light scattering

B1: SARS-CoV ORF-9b protein (natural protein)
chain: MDPNQTNVVPPALHLVDPQIQLTITRMEDAMGQGQNSADPKVYPIILRLGSQLSLSMARRNLDSLEARAFQSTPIVVQMTKLATTEELPDEFVVVTAK
For B1, the “stoichiometry N” value was 2.
